# Data reported in publication PMC8035206.
# B1: 55-nt vRNA (5' UTR segment) (ssRNA)
# RNA: AUUAAAGGUUUAUACCUUCCCAGGUAACAAACCAACCAACUUUCGAUCUCUUGUA
# Biological target: N-mEGFP full length (nucleocapsid) (SARS-CoV-2, UniProt P0DTC9 1-419)
# Experiment: EMSA; 200 nM RNA; N-mEGFP titrated
# Conditions: protein: recombinant; tags: C-terminal mEGFP; pET28a(+), Ni-purified (His tag implied); chain copies: 2
binder,measurement,value
B1,binding result,binds
